Results on one protein are retold here after article PMC3112443.

Data set [1] is described as follows: non-reducing Western blot. To be noted: glycan lost; control: wild type.
Data set [2] is described as follows: supernatant titer on PFVL luciferase indicator cells. To be noted: glycan lost; control: wild type.

B1: human tetherin (HuTHN; BST-2, CD317, HM1.24): N65/92A (protein)
parent chain: MASTSYDYCRVPMEDGDKRCKLLLGIGILVLLIIVILGVPLIIFTIKANSEACRDGLRAVMECRNVTHLLQQELTEAQKGFQDVEAQAATCNHTVMALMASLDAEKAQGQKKVEELEGEITTLNHKLQDASAEVERLRRENQVLSVRIADKKYYPSSQDSSSAAAPQLLIVLLGLSALLQ
With B1, the oligomerisation result in data set [1] is reported as “no change”. Also, the “other: inhibition of virus release” value in data set [2] is recorded as “no change”.
